These results are taken from article doi:10.1101/2020.05.19.105320.

The target of the experiment is H10CLPX Zinc binding domain (CLPXZBD) (human). Put plainly: SEC. (Size exclusion chromatography separates by hydrodynamic size, large species first.)

For the molecule “H10CLPX Zinc binding domain (CLPXZBD) (domain or fragment)”, the stoichiometry N (usually the number of molecules, sites or subunits per partner or assembly) turned out to be 2.

B1: H10PDIP38 (PDIP38 with an N-terminal H10-tag) (natural protein)
chain: SSRNRPEGKVLETVGVFEVPKQNGKYETGQLFLHSIFGYRGVVLFPWQARLYDRDVASAAPEKAENPAGHGSKEVKGKTHTYYQVLIDARDCPHISQRSQTEAVTFLANHDDSRALYAIPGLDYVSHEDILPYTSTDQVPIQHELFERFLLYDQTKAPPFVARETLRAWQEKNHPWLELSDVHRETTENIRVTVIPFYMGMREAQNSHVYWWRYCIRLENLDSDVVQLRERHWRIFSLSGTLETVRGRGVVGREPVLSKEQPAFQYSSHVSLQASSGHMWGTFRFERPDGSHFDVRIPPFSLESNKDEKTPPSGLHW
Regarding B1, the stoichiometry N is 1.
